Experimental data from PMC13638050 (PLOS Biology, 2026).

B1: somatic CR9114 Fab VH S52G (Fab, V domains shown)
VH: QVQLVQSGAEVKKPGSSVKVSCKSSGGTSNNYAISWVRQAPGQGLDWMGGIGPIFGSTAYAQKFQGRVTISADIFSNTAYMELNSLTSEDTAVYFCARHGNYYYYSGMDVWGQGTTVTVSS
VL: SYVLTQPPAVSGTPGQRVTISCSGSDSNIGRRSVNWYQQFPGTAPKLLIYSNDQRPSVVPDRFSGSKSGTSASLAISGLQSEDEAEYYCAAWDDSLKGAVFGGGTQLTVL
B2: somatic CR9114 Fab VH S24L (Fab, V domains shown)
VH: QVQLVQSGAEVKKPGSSVKVSCKLSGGTSNNYAISWVRQAPGQGLDWMGGISPIFGSTAYAQKFQGRVTISADIFSNTAYMELNSLTSEDTAVYFCARHGNYYYYSGMDVWGQGTTVTVSS
VL: SYVLTQPPAVSGTPGQRVTISCSGSDSNIGRRSVNWYQQFPGTAPKLLIYSNDQRPSVVPDRFSGSKSGTSASLAISGLQSEDEAEYYCAAWDDSLKGAVFGGGTQLTVL
B3: somatic CR9114 Fab VH S24F (Fab, V domains shown)
VH: QVQLVQSGAEVKKPGSSVKVSCKFSGGTSNNYAISWVRQAPGQGLDWMGGISPIFGSTAYAQKFQGRVTISADIFSNTAYMELNSLTSEDTAVYFCARHGNYYYYSGMDVWGQGTTVTVSS
VL: SYVLTQPPAVSGTPGQRVTISCSGSDSNIGRRSVNWYQQFPGTAPKLLIYSNDQRPSVVPDRFSGSKSGTSASLAISGLQSEDEAEYYCAAWDDSLKGAVFGGGTQLTVL
B4: somatic CR9114 Fab VH I73W (Fab, V domains shown)
VH: QVQLVQSGAEVKKPGSSVKVSCKSSGGTSNNYAISWVRQAPGQGLDWMGGISPIFGSTAYAQKFQGRVTISADWFSNTAYMELNSLTSEDTAVYFCARHGNYYYYSGMDVWGQGTTVTVSS
VL: SYVLTQPPAVSGTPGQRVTISCSGSDSNIGRRSVNWYQQFPGTAPKLLIYSNDQRPSVVPDRFSGSKSGTSASLAISGLQSEDEAEYYCAAWDDSLKGAVFGGGTQLTVL
B5: somatic CR9114 Fab VH S52V (Fab, V domains shown)
VH: QVQLVQSGAEVKKPGSSVKVSCKSSGGTSNNYAISWVRQAPGQGLDWMGGIVPIFGSTAYAQKFQGRVTISADIFSNTAYMELNSLTSEDTAVYFCARHGNYYYYSGMDVWGQGTTVTVSS
VL: SYVLTQPPAVSGTPGQRVTISCSGSDSNIGRRSVNWYQQFPGTAPKLLIYSNDQRPSVVPDRFSGSKSGTSASLAISGLQSEDEAEYYCAAWDDSLKGAVFGGGTQLTVL
B6: germline CR9114 Fab (inferred germline of CR9114) (Fab, V domains shown)
VH: QVQLVQSGAEVKKPGSSVKVSCKASGGTFSSYAISWVRQAPGQGLEWMGGIIPIFGTANYAQKFQGRVTITADKSTSTAYMELSSLRSEDTAVYYCARHGNYYYYYGMDVWGQGTTVTVS
VL: SYVLTQPPAVSGTPGQRVTISCSGSDSNIGRRSVNWYQQFPGTAPKLLIYSNDQRPSVVPDRFSGSKSGTSASLAISGLQSEDEAEYYCAAWDDSLKGAVFGGGTQLTVL

Biological target: T1, influenza B/Lee/1940 (B/Lee40) HA (influenza B virus B/Lee/1940, biotin on the BirA biotinylation site (BirA kit))
T1 construct: source: Sf9 (baculovirus), purified from the supernatant (Ni Sepharose excel, SEC)
T1 chain: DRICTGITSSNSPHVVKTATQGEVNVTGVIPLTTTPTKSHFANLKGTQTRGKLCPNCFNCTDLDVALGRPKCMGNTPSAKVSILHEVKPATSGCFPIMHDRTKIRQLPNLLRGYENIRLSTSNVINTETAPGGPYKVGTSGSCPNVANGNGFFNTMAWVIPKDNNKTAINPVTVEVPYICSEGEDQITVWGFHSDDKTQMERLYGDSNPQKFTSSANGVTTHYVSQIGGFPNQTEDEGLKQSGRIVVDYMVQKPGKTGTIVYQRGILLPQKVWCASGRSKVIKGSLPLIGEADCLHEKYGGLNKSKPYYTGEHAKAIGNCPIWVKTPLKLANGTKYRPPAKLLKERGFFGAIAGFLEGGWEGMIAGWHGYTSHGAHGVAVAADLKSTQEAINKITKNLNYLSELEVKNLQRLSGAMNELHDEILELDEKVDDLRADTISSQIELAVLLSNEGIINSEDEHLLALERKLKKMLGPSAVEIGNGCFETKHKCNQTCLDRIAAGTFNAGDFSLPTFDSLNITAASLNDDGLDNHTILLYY
Test: BLI
Conditions: both partners purified
B1: no binding. B2: no binding. B3: no binding. B4: no binding. B5: no binding.

Each binder was assayed against H1 stem (recombinant HA stem construct #4900 designed based on H1N1 A/Brisbane/59/2007 HA) (influenza A virus H1N1 …, biotin on the BirA biotinylation site (BirA kit)) (assay: BLI). Conditions: both partners purified.
For B6, the Kd was 185 nM.
